Measured values as given in US20220048967A1 (published 2022).
Numbering of substitutions follows the chain as printed. Numbered stars: 1 amine (or outer) side, 2 acyl side, 3 side chain; on linkers, the order of the positions; unused ones are H or OH. Square brackets hold non-standard residues; d marks the D form. Side chains are listed from the residue outwards. Ends that are not written are not given here. * marks the point of attachment. C20 diacid = O=C(O)CCCCCCCCCCCCCCCCCCC(=O)*; C18 diacid = O=C(O)CCCCCCCCCCCCCCCCC(=O)*; αMePhe(2-F) = C[C@](N)(Cc1ccccc1F)C(=O)O; γGlu = O=C(O)[C@H](CCC(=O)[*:2])N[*:1]; αMeF = C[C@](N)(Cc1ccccc1)C(=O)O; AEEA = NCCOCCOCC(=O)O; Aib = CC(C)(N)C(=O)O

T1: human gastric inhibitory peptide receptor (GIPR) (human, UniProt P48546 22-466)
T1 sequence (looked up): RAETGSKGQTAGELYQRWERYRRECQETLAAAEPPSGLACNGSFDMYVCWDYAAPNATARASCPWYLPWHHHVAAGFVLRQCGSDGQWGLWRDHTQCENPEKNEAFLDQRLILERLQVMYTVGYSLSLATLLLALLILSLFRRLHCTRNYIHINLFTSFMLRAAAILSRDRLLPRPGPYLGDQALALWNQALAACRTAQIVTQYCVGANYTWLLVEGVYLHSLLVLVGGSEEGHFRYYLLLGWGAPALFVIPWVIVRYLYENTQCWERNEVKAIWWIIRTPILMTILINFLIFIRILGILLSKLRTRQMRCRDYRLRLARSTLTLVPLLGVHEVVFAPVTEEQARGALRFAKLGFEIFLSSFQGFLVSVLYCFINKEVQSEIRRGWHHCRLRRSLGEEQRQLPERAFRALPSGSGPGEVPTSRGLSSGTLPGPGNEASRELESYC

B1: Example 165 (peptide)
peptide: Y[Aib]EGT[αMePhe(2-F)]TSDHSI[αMeF]LDEK([AEEA-AEEA-γGlu-C20 diacid])AQ[Aib]TFI[dE][αMeF]LI[dE]GGPSSGAPPPS-NH2
modifications: N-terminus assumed
SMILES: CC[C@H](C)[C@H](NC(=O)[C@H](CC(C)C)NC(=O)[C@](C)(Cc1ccccc1)NC(=O)[C@@H](CCC(=O)O)NC(=O)[C@@H](NC(=O)[C@H](Cc1ccccc1)NC(=O)[C@@H](NC(=O)C(C)(C)NC(=O)[C@H](CCC(N)=O)NC(=O)[C@H](C)NC(=O)[C@H](CCCCNC(=O)COCCOCCNC(=O)COCCOCCNC(=O)CC[C@H](NC(=O)CCCCCCCCCCCCCCCCCCC(=O)O)C(=O)O)NC(=O)[C@H](CCC(=O)O)NC(=O)[C@H](CC(=O)O)NC(=O)[C@H](CC(C)C)NC(=O)[C@](C)(Cc1ccccc1)NC(=O)[C@@H](NC(=O)[C@H](CO)NC(=O)[C@H](Cc1c[nH]cn1)NC(=O)[C@H](CC(=O)O)NC(=O)[C@H](CO)NC(=O)[C@@H](NC(=O)[C@](C)(Cc1ccccc1F)NC(=O)[C@@H](NC(=O)CNC(=O)[C@H](CCC(=O)O)NC(=O)C(C)(C)NC(=O)[C@@H](N)Cc1ccc(O)cc1)[C@@H](C)O)[C@@H](C)O)[C@@H](C)CC)[C@@H](C)O)[C@@H](C)CC)C(=O)N[C@H](CCC(=O)O)C(=O)NCC(=O)NCC(=O)N1CCC[C@H]1C(=O)N[C@@H](CO)C(=O)N[C@@H](CO)C(=O)NCC(=O)N[C@@H](C)C(=O)N1CCC[C@H]1C(=O)N1CCC[C@H]1C(=O)N1CCC[C@H]1C(=O)N[C@@H](CO)C(N)=O
B2: Example 167 (peptide)
peptide: Y[Aib]EGT[αMePhe(2-F)]TSDHSI[αMeF]LDEK([AEEA-AEEA-γGlu-C20 diacid])AQ[Aib]TFI[dE]YLIEGGPSSG-NH2
modifications: N-terminus assumed
SMILES: CC[C@H](C)[C@H](NC(=O)[C@H](CC(C)C)NC(=O)[C@H](Cc1ccc(O)cc1)NC(=O)[C@@H](CCC(=O)O)NC(=O)[C@@H](NC(=O)[C@H](Cc1ccccc1)NC(=O)[C@@H](NC(=O)C(C)(C)NC(=O)[C@H](CCC(N)=O)NC(=O)[C@H](C)NC(=O)[C@H](CCCCNC(=O)COCCOCCNC(=O)COCCOCCNC(=O)CC[C@H](NC(=O)CCCCCCCCCCCCCCCCCCC(=O)O)C(=O)O)NC(=O)[C@H](CCC(=O)O)NC(=O)[C@H](CC(=O)O)NC(=O)[C@H](CC(C)C)NC(=O)[C@](C)(Cc1ccccc1)NC(=O)[C@@H](NC(=O)[C@H](CO)NC(=O)[C@H](Cc1c[nH]cn1)NC(=O)[C@H](CC(=O)O)NC(=O)[C@H](CO)NC(=O)[C@@H](NC(=O)[C@](C)(Cc1ccccc1F)NC(=O)[C@@H](NC(=O)CNC(=O)[C@H](CCC(=O)O)NC(=O)C(C)(C)NC(=O)[C@@H](N)Cc1ccc(O)cc1)[C@@H](C)O)[C@@H](C)O)[C@@H](C)CC)[C@@H](C)O)[C@@H](C)CC)C(=O)N[C@@H](CCC(=O)O)C(=O)NCC(=O)NCC(=O)N1CCC[C@H]1C(=O)N[C@@H](CO)C(=O)N[C@@H](CO)C(=O)NCC(N)=O
B3: Example 166 (peptide)
peptide: Y[Aib]EGT[αMePhe(2-F)]TSDHSI[αMeF]LDEK([AEEA-AEEA-γGlu-C20 diacid])AQ[Aib]TFI[dE]YLIEGG-NH2
modifications: N-terminus assumed
SMILES: CC[C@H](C)[C@H](NC(=O)[C@H](CC(C)C)NC(=O)[C@H](Cc1ccc(O)cc1)NC(=O)[C@@H](CCC(=O)O)NC(=O)[C@@H](NC(=O)[C@H](Cc1ccccc1)NC(=O)[C@@H](NC(=O)C(C)(C)NC(=O)[C@H](CCC(N)=O)NC(=O)[C@H](C)NC(=O)[C@H](CCCCNC(=O)COCCOCCNC(=O)COCCOCCNC(=O)CC[C@H](NC(=O)CCCCCCCCCCCCCCCCCCC(=O)O)C(=O)O)NC(=O)[C@H](CCC(=O)O)NC(=O)[C@H](CC(=O)O)NC(=O)[C@H](CC(C)C)NC(=O)[C@](C)(Cc1ccccc1)NC(=O)[C@@H](NC(=O)[C@H](CO)NC(=O)[C@H](Cc1c[nH]cn1)NC(=O)[C@H](CC(=O)O)NC(=O)[C@H](CO)NC(=O)[C@@H](NC(=O)[C@](C)(Cc1ccccc1F)NC(=O)[C@@H](NC(=O)CNC(=O)[C@H](CCC(=O)O)NC(=O)C(C)(C)NC(=O)[C@@H](N)Cc1ccc(O)cc1)[C@@H](C)O)[C@@H](C)O)[C@@H](C)CC)[C@@H](C)O)[C@@H](C)CC)C(=O)N[C@@H](CCC(=O)O)C(=O)NCC(=O)NCC(N)=O
B4: Example 179 (peptide)
peptide: Y[Aib]EGT[αMePhe(2-F)]TSDHSI[αMeF]LDEK([AEEA-AEEA-γGlu-C18 diacid])AQ[Aib]HFI[dE]YLIEGGPSSG-NH2
modifications: N-terminus assumed
SMILES: CC[C@H](C)[C@H](NC(=O)[C@H](CC(C)C)NC(=O)[C@H](Cc1ccc(O)cc1)NC(=O)[C@@H](CCC(=O)O)NC(=O)[C@@H](NC(=O)[C@H](Cc1ccccc1)NC(=O)[C@H](Cc1c[nH]cn1)NC(=O)C(C)(C)NC(=O)[C@H](CCC(N)=O)NC(=O)[C@H](C)NC(=O)[C@H](CCCCNC(=O)COCCOCCNC(=O)COCCOCCNC(=O)CC[C@H](NC(=O)CCCCCCCCCCCCCCCCC(=O)O)C(=O)O)NC(=O)[C@H](CCC(=O)O)NC(=O)[C@H](CC(=O)O)NC(=O)[C@H](CC(C)C)NC(=O)[C@](C)(Cc1ccccc1)NC(=O)[C@@H](NC(=O)[C@H](CO)NC(=O)[C@H](Cc1c[nH]cn1)NC(=O)[C@H](CC(=O)O)NC(=O)[C@H](CO)NC(=O)[C@@H](NC(=O)[C@](C)(Cc1ccccc1F)NC(=O)[C@@H](NC(=O)CNC(=O)[C@H](CCC(=O)O)NC(=O)C(C)(C)NC(=O)[C@@H](N)Cc1ccc(O)cc1)[C@@H](C)O)[C@@H](C)O)[C@@H](C)CC)[C@@H](C)CC)C(=O)N[C@@H](CCC(=O)O)C(=O)NCC(=O)NCC(=O)N1CCC[C@H]1C(=O)N[C@@H](CO)C(=O)N[C@@H](CO)C(=O)NCC(N)=O
B5: Example 168 (peptide)
peptide: YXEGTXTSDHSIXLDEKAQXTFIXYLIEGGPSSGAPPPS
modifications: Y-Aib-EGT-αMeF(2F)-TSDHSI-αMeF-LDEK((2-[2-(2-Amino-ethoxy)-ethoxy]-acetyl)2-(γ-Glu)-CO-(CH2)18-CO2H)AQ-Aib-TFI-(D-Glu)-YLIEGGPSSGAPPPS-NH2
B6: Example 173 (peptide)
peptide: B5 peptide with E16X
modifications: Y-Aib-EGT-αMeF(2F)-TSDHSI-αMeF-LD-Dap-K((2-[2-(2-Amino-ethoxy)-ethoxy]-acetyl)2-(γ-Glu)-CO-(CH2)18-CO2H)AQ-Aib-TFI-(D-Glu)-YLIEGGPSSGAPPPS-NH2
B7: Example 174 (peptide)
peptide: B5 peptide
modifications: Y-Aib-EGT-αMeF(2F)-TSDHSI-αMeF-LDEK((2-[2-(2-Amino-ethoxy)-ethoxy]-acetyl)2-CO-(CH2)18-CO2H)AQ-Aib-TFI-(D-Glu)-YLIEGGPSSGAPPPS-NH2
B8: Example 176 (peptide)
peptide: B5 peptide
modifications: Y-Aib-EGT-αMeF(2F)-TSDHSI-αMeF-LDEK((2-[2-(2-Amino-ethoxy)-ethoxy]-acetyl)2-(ϵK)-CO-(CH2)16-CO2H)AQ-Aib-TFI-(D-Glu)-YLIEGGPSSGAPPPS-NH2
B9: Example 171 (peptide)
peptide: B5 peptide with E16X
modifications: Y-Aib-EGT-αMeF(2F)-TSDHSI-αMeF-LD-Orn-K((2-[2-(2-Amino-ethoxy)-ethoxy]-acetyl)2-(γ-Glu)-CO-(CH2)18-CO2H)AQ-Aib-TFI-(D-Glu)-YLIEGGPSSGAPPPS-NH2
B10: Example 178 (peptide)
peptide: B5 peptide with T21H
modifications: Y-Aib-EGT-αMeF(2F)-TSDHSI-αMeF-LDEK((2-[2-(2-Amino-ethoxy)-ethoxy]-acetyl)2-(γ-Glu)-CO-(CH2)14-CO2H)AQ-Aib-HFI-(D-Glu)-YLIEGGPSSGAPPPS-NH2
B11: Example 172 (peptide)
peptide: B5 peptide with E16X
modifications: Y-Aib-EGT-αMeF(2F)-TSDHSI-αMeF-LD-Dab-K((2-[2-(2-Amino-ethoxy)-ethoxy]-acetyl)2-(γ-Glu)-CO-(CH2)18-CO2H)AQ-Aib-TFI-(D-Glu)-YLIEGGPSSGAPPPS-NH2
B12: Example 169 (peptide)
peptide: B5 peptide
modifications: Y-Aib-EGT-αMeF(2F)-TSDHSI-αMeF-LDEK((2-[2-(2-Amino-ethoxy)-ethoxy]-acetyl)2-(γ-Glu)-CO-(CH2)16-CO2H)AQ-Aib-TFI-(D-Glu)-YLIEGGPSSGAPPPS-NH2
B13: Example 175 (peptide)
peptide: B5 peptide
modifications: Y-Aib-EGT-αMeF(2F)-TSDHSI-αMeF-LDEK((2-[2-(2-Amino-ethoxy)-ethoxy]-acetyl)2-(ϵK)-CO-(CH2)18-CO2H)AQ-Aib-TFI-(D-Glu)-YLIEGGPSSGAPPPS-NH2
B14: Example 170 (peptide)
peptide: B5 peptide
modifications: Y-Aib-EGT-αMeF(2F)-TSDHSI-αMeF-LDEK((2-[2-(2-Amino-ethoxy)-ethoxy]-acetyl)2-(γ-Glu)-CO-(CH2)14-CO2H)AQ-Aib-TFI-(D-Glu)-YLIEGGPSSGAPPPS-NH2
B15: Example 177 (peptide)
peptide: B5 peptide with T21H
modifications: Y-Aib-EGT-αMeF(2F)-TSDHSI-αMeF-LDEK((2-[2-(2-Amino-ethoxy)-ethoxy]-acetyl)2-(γ-Glu)-CO-(CH2)16-CO2H)AQ-Aib-HFI-(D-Glu)-YLIEGGPSSGAPPPS-NH2

Each binder was assayed against T1, human gastric inhibitory peptide … (assay: cell-based or functional assay).

Binder | hGIPR cAMP EC50 ratio | hGIPR cAMP Rel EC50
B1 | 0.172 | 1.04 nM
B2 | 0.291 | 0.617 nM
B3 | 0.504 | 0.355 nM
B4 | 0.0575 | 1.83 nM
B5 | 0.313 | 0.572 nM
B6 | 0.179 | 0.586 nM
B7 | 0.483 | 0.217 nM
B8 | 0.201 | 0.523 nM
B9 | 0.471 | 0.223 nM
B10 | 0.0341 | 3.08 nM
B11 | 0.1 | 1.05 nM
B12 | 0.122 | 0.86 nM
B13 | 1.19 | 0.0881 nM
B14 | 0.185 | 0.569 nM
B15 | 0.0749 | 1.4 nM

Each binder was assayed against human GLP-1 receptor (GLP-1R) (human, UniProt P43220 24-463) (assay: cell-based or functional assay).

Binder | hGLP1R cAMP EC50 ratio | hGLP1R cAMP Rel EC50
B1 | 0.01 | 5.81 nM
B2 | 0.0487 | 1.2 nM
B3 | 0.0143 | 4.08 nM
B4 | 0.0169 | 2.7 nM
B5 | 0.0323 | 1.8 nM
B6 | 0.0373 | 1.23 nM
B7 | 0.0968 | 0.472 nM
B8 | 0.0427 | 1.07 nM
B9 | 0.0609 | 0.75 nM
B10 | 0.00349 | 13.1 nM
B11 | 0.038 | 1.2 nM
B12 | 0.0136 | 3.37 nM
B13 | 0.0412 | 1.11 nM
B14 | 0.00438 | 10.4 nM
B15 | 0.00673 | 6.79 nM
